How the values were obtained:
[1] = biological target: OX40 human/mouse chimera 1544 (human; mouse) (UniProt P47741); experiment: FACS, 293-F transfectants; MFI/isotype control
[2] = biological target: CD137 human/mouse chimera 1550 (human; mouse) (UniProt P20334); experiment: FACS, 293-F transfectants; MFI/isotype, normalized to full-length CD137
CD137 human/mouse chimera 1550 (human; mouse), sequence (P20334 other isoform, or with tags, fused parts or gaps mutant limits assumed): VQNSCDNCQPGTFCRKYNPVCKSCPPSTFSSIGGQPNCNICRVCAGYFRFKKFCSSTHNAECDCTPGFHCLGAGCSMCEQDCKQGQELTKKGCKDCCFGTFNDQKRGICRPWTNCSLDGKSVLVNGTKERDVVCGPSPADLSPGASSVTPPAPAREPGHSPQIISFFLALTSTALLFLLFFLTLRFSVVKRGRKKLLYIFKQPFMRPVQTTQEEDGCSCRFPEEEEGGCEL

OX40 human/mouse chimera 1544 (human; mouse), sequence (P47741 other isoform, or with tags, fused parts or gaps mutant limits assumed): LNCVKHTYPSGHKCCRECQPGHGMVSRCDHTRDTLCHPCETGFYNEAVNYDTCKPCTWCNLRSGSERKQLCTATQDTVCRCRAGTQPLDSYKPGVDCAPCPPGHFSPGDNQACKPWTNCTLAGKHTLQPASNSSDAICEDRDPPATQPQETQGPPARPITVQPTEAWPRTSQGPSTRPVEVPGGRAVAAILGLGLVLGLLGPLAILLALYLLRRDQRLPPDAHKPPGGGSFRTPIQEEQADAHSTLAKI

relative MFI [1]	relative binding [2]	Binder
2	–	anti-OX40 antibody 1170/1171 (antibody, V domains shown) VH: EVQLLESGGGLVQPGGSLRLSCAASGFTFGGYYMSWVRQAPGKGLEWVSYIPGSGGSTYYADSVKGRFTISRDNSKNTLYLQMNSLRAEDTAVYYCARYDYYWMDYWGQGTLVTVSS VL: DIQMTQSPSSLSASVGDRVTITCRASQSISSYLNWYQQKPGKAPKLLIYAASSLQSGVPSRFSGSGSGTDFTLTISSLQPEDFATYYCQQGHGSYPHTFGQGTKLEIK
–	0.07	anti-CD137 antibody 1204/1205 (antibody, IgG1, V domains shown) VH: EVQLLESGGGLVQPGGSLRLSCAASGFTFSSYYMGWVRQAPGKGLEWVSGIGSYYGYTGYADSVKGRFTISRDNSKNTLYLQMNSLRAEDTAVYYCARAYYDYNYYYAYFDYWGQGTLVTVSS VL: DIQMTQSPSSLSASVGDRVTITCRASQSISSYLNWYQQKPGKAPKLLIYAASSLQSGVPSRFSGSGSGTDFTLTISSLQPEDFATYYCQQSVPHYPFTFGQGTKLEIK

Reference: patent publication US20180118841A1
